Laboratory results from US20240294638A1 (LES LABORATOIRES SERVIER, published 2024).

T1: CD94 homodimer (human, UniProt Q13241 32-179, limits assumed)
T1 sequence (looked up): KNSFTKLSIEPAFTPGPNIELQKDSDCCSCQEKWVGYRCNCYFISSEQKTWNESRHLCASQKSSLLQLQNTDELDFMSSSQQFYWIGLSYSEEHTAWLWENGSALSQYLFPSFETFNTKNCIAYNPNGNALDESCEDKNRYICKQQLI


Assays:
[1] = molecular target: T2, cynomolgus NKG2A and cynomolgus CD94 expressed on transiently transfected CHO-S cells (cynomolgus, UniProt Q68VD2 1-233; Q68VD4 1-179); assay: blocking of PE-conjugated HLA-E pentamer binding to transiently transfected CHO-S cells, flow cytometry (percentage binding) [panel B cNKG2A]
T2 construct: whole, on cells
Experimental: (§1) CHO-S cells were transiently transfected with constructs for expression of human NKG2A and human CD94, human NKG2C and human CD94, cynomolgus NKG2A and cynomolgus CD94, or cynomolgus NKG2C and cynomolgus CD94. Mock transfected CHO-S cells were included in the assay as negative control. A PE-conjugated HLA-E pentamer was tested for binding to the heterodimers in the presence of anti-human NKG2A antibodies in 3-fold serial dilutions from 10 μg/mL down to 14 ng/mL antibody, and 0 μg/mL antibody. The antibodies were allowed to bind for 30 min at 4° C. prior to the addition of the HLA-E pentamer in a 1:50 dilution. The fluorescence intensity of HLA-E binding to the transfected cells was measured by high throughput flow cytometry (IQue screener, Sartorius). Data were transferred to Excel and graphs were generated using GraphPad Prism® software.

[2] = molecular target: T3, human NKG2A and human CD94 expressed on transiently transfected CHO-S cells (human, UniProt Q13241 1-179); assay: flow cytometry, transiently transfected CHO-S cells, AF647 goat anti-human IgG secondary (MFI) [cont.), panel 24135]
T3 construct: whole, on cells; also called human NKG2A/CD94 heterodimer
Experimental: (§2) CHO-S cells were transiently transfected with human NKG2A and human CD94, human NKG2C and human CD94, cynomolgus NKG2A and cynomolgus CD94 or cynomolgus NKG2C and cynomolgus CD94 constructs. Mock transfected CHO-S cells were included in the assay as a negative control. Antibodies were tested for binding to the transfected cells in 3-fold dilutions from 30 μg/mL down to 0.5 ng/ml antibody, and 0 μg/mL antibody, and incubated for 30 min at 4° C. Following a washing step, the cells were incubated with a fluorescent goat anti-human IgG (H+L) secondary antibody (A-21445, Invitrogen) for 30 min at 4° C. in the dark. After a second wash, the cells were tested by high throughput flow cytometry (IQue screener, Sartorius). Data were transferred to Excel and graphs were generated using GraphPad Prism® software.

[3] = molecular target: T3, human NKG2A and human CD94 expressed on …; assay: flow cytometry, CHO-S cells transiently transfected with NKG2A variant and CD94, AF647 goat anti-human IgG secondary (MFI) [cont.), panel 24135]
Experimental: (§3) Six anti-human NKG2A antibodies were tested for binding to the different heterodimers expressed. Antibodies were tested for binding to the transfected cells in 3-fold serial dilutions from 1 μg/mL antibody, and 0 μg/ml antibody, and incubated for 30 min at 4° C. Following a washing step, the cells were incubated with a fluorescent goat anti-human IgG (H+L) secondary antibody (A-21445, Invitrogen) for 30 min at 4° C. in the dark. After a second wash, the cells were tested by high throughput flow cytometry (IQue screener, Sartorius). Data were transferred to Excel and graphs were generated using GraphPad Prism® software. A reference antibody analogue and an isotype control were included for comparison.

[4] = molecular target: T4, I225M (Homo sapiens); assay: as above
T4 construct: co-expressed on CHO-S cells; also called human NKG2A I225M / human CD94 heterodimer on CHO-S cells
T4 sequence (P26715 whole entry I225M): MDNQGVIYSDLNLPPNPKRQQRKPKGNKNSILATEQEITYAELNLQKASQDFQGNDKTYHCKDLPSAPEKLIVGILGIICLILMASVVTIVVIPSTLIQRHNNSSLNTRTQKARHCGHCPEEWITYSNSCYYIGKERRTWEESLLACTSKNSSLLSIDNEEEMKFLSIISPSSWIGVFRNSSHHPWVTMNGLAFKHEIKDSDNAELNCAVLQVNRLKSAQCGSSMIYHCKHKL
Experimental: as §3

[5] = molecular target: T5, recombinant human NKG2A/CD94 heterodimer (extracellular domains) (human, UniProt Q13241 32-179); assay: SPR (IBIS MX96), mAb captured on anti-human IgG Fc, ECD heterodimer injected, 1:1 fit
T5 construct: extracellular domain; ECDs co-expressed in Expi293, purified by Ni-NTA and anti-Flag; also called HuNKG2A/huCD94; NKG2A/CD94 ECDs
Experimental: (§4) Kinetic binding analysis of anti-NKG2A monoclonal antibodies (mAbs) was performed by Surface Plasmon Resonance (SPR) using a Continuous Flow Microspotter (CFM, Wasatch Microfluidics, Salt Lake City, US) combined with an IBIS MX96 SPR instrument (IBIS Technologies, The Netherlands). The extracellular domains (ECDs) of human his-tagged NKG2A, NKG2C and FLAG-tagged CD94 were co-expressed using an Expi293™ expression system and purified by standard Ni-NTA chromatography followed by anti-Flag M2 affinity gel (A2220, Sigma). Binding kinetics were measured by capturing mAbs on a G-a-hu-IgG Fc SensEye® for 15 minutes using the CFM. After spotting, the SensEye® was positioned in the IBIS MX96 biosensor and immobilized mAbs were fixed by SensEye FixIt kit. Kinetic analysis was performed by applying a kinetic titration series injecting increasing concentrations of antigens from 1.6 nM to 400 nM as 2-fold dilutions. After each cycle of antigen injection, the surface was regenerated by 100 mM H₃PO₄, pH 3. Antigen association and dissociation were measured for 15 minutes. The recorded binding responses were fitted to a simple 1:1 binding model with Scrubber 2.0 software for calculation of the on-rate (kₒₙ or kₐ), off-rate (Koff or kd) and affinity (KD) constants. Binding kinetic parameters were measured as an average of three independent measuring points.

[6] = molecular target: T6, recombinant human NKG2C/CD94 heterodimer (extracellular domains) (human, UniProt P26717 94-231; Q13241 32-179); assay: as above
T6 construct: extracellular domain; also called HuNKG2C/huCD94; NKG2C/CD94 ECDs
Experimental: as §4

[7] = molecular target: T1, CD94 homodimer; assay: SPR
Experimental: as §4
The binding affinities and kinetic parameters of the anti-NKG2A mAbs binding to NKG2A/CD94 and NKG2C/CD94 heterodimers are shown in Table 7. […] None of the mAbs bound to CD94 homodimer (data not shown).

[8] = molecular target: NKG2A on primary human NK cells (human, UniProt P26715 1-233); assay: cell-based or functional assay
Sequence of NKG2A on primary human NK cells (P26715 whole entry): as the sequence (P26715 whole entry I225M) above, with M225I counted along it

[9] = molecular target: T3, human NKG2A and human CD94 expressed on …; assay: blocking of PE-conjugated HLA-E pentamer binding to transiently transfected CHO-S cells, flow cytometry (percentage binding) [panel A hNKG2A]
Experimental: as §1

[10] = molecular target: T3, human NKG2A and human CD94 expressed on …; assay: flow cytometry, transiently transfected CHO-S cells, AF647 goat anti-human IgG secondary (MFI) [cont.), panel 23765]
Experimental: as §2

[11] = molecular target: T2, cynomolgus NKG2A and cynomolgus CD94 …; assay: as above
Experimental: as §2

[12] = molecular target: T3, human NKG2A and human CD94 expressed on …; assay: flow cytometry, CHO-S cells transiently transfected with NKG2A variant and CD94, AF647 goat anti-human IgG secondary (MFI) [cont.), panel 23765]
Experimental: as §3

[13] = molecular target: T7, I168S (Homo sapiens); assay: as above
T7 construct: co-expressed on CHO-S cells; also called human NKG2A I168S / human CD94 heterodimer on CHO-S cells
T7 sequence (P26715 whole entry I168S): as the sequence (P26715 whole entry I225M) above, with I168S, M225I counted along it
Experimental: as §3

[14] = molecular target: T4, I225M; assay: as above
Experimental: as §3

[15] = molecular target: T4, I225M; assay: flow cytometry, CHO-S cells transiently transfected with NKG2A variant and CD94, AF647 goat anti-human IgG secondary (MFI) [cont.), panel 24208]
Experimental: as §3

| Binder | binding result [1] | Kd [5] [nM] | koff [5] [s⁻¹] | kon [5] [M⁻¹ s⁻¹] | Kd [6] [nM] | koff [6] [s⁻¹] | kon [6] [M⁻¹ s⁻¹] | binding result [7] | further results |
| --- | --- | --- | --- | --- | --- | --- | --- | --- | --- |
| antibody 24135 (antibody, human IgG1, kappa, L234A L235A, V domains shown, Fully human IgG1-LALA (L234A/L235A), kappa; also called mAb 24135) VH: QVQLQESGPGLVKPSETLSLTCTVSGGSVSSGHYYWSWIRQPPGKGLEWIGYIYYSGSTTYNPSLKSRVSISVDTSKHQFSLKLSSVTAADTAVYYCARWAGSYQPYYYYYGMDVWGQGTTVTVSS VL: not shown | no binding (tested: 10000 ng/ml) | 3.7 | 0.0013 | 340000 | 147 | 0.00098 | 6700 | no binding | EC50 (read off the curve) [2]: ~0.02 µg/mL; EC50 (read off the curve) [3]: ~0.005 µg/mL; EC50 (read off the curve) [4]: ~0.006 µg/mL |
| BMS-NKG2A.11 (antibody, human IgG1, kappa, V domains shown) VH: EVQLVESGGGLVKPGGSLRLSCAASGFTFSSHSMNWVRQAPGKGLEWVSAISSSSSYIYYADSVKGRFTISRDNAKNSLYLQMNSLRAEDTAVYYCAREEWGLPFDYWGQGTLVTVSS VL: AIQLTQSPSSLSASVGDRVTITCRASQGIPSALAWYQQKPGKAPKLLIYDASSLKSGVPSRFSGSGSGTDFTLTISSLQPEDFATYYCQQFNSYPLTFGQGTRLEIKR |  |  |  |  |  |  |  |  | EC50 (ug/mL) of induced NK cell cytotoxicity, median (n = 6) [8]: 0.71 µg/mL |
| antibody 23765 (antibody, human IgG1, kappa, L234A L235A, V domains shown, Fully human IgG1-LALA (L234A/L235A), kappa) VH: EVQLVESGGGLVKPGGSLRLSCAASGFTFSCCRMNWVRQAPGKGLEWVSSISSSSSYIYYADSVKGRFTISRDNAKNSLYLQMNSLRAEDTAVYYCARDGWNDVFDYWGQGTLVTVSS VL: EIVLTQSPATLSLSPGERATLSCRASQSVSSYLAWYQQKPGQAPRLLIYDASNRATGIPARFSGSGSGTDFTLTISSLEPEDFAVYYCQQRSNWPLTFGGGTKVEIKR |  | 15 | 0.0013 | 88000 | 717 | 0.00156 | 2180 |  | IC50 (read off the curve) [9]: ~0.6 µg/mL; EC50 (read off the curve) [10]: ~0.04 µg/mL; EC50 (read off the curve) [11]: ~0.02 µg/mL; EC50 (read off the curve) [12]: ~0.01 µg/mL; EC50 (read off the curve) [13]: ~0.01 µg/mL; EC50 (read off the curve) [14]: ~0.01 µg/mL |
| antibody 24208 (antibody, human IgG1, kappa, L234A L235A, V domains shown, Fully human IgG1-LALA (L234A/L235A), kappa; also called mAb 24208; 24208 (IgG1 LALA)) VH: QVQLVESGGGLVKPGGSLRLSCAASGFTFSDYYMRWIRQAPGKGLEWVSHISTSGSTIYYADSVKGRFTISRDNAKNSLYLQMNSLRAEDTAVYYCARDHYYSRGVIGYWGQGTLVTVSS VL: DIQMTQSPSSVSASVGDRVTITCRASQGISSWLAWYQQKPGKAPKLLIYAASSLQSGVPSRFSGSGSGTDFTLTISSLQPEDFATYYCQQANSFPYTFGQGTKLEIKR | no binding (tested: 10000 ng/ml) |  |  |  |  |  |  | no binding | EC50 (read off the curve) [15]: ~0.004 µg/mL; EC50 (ug/mL) of induced NK cell cytotoxicity, median (n = 19) [8]: 0.19 µg/mL |
| BMS-NKG2A.9 (antibody, human IgG1, kappa, V domains shown) VH: EVQLVESGGGLVKPGGSLRLSCAASGFTFSSHSMNWVRQAPGKGLEWVSAISSSSSYIYYADSVKGRFTISRDNAKNSLYLQMNSLRAEDTAVYYCAREEWGLPFDYWGQGTLVTVSS VL: AIQLTQSPSSLSASVGDRVTITCRASQGISSALAWYQQKPGKAPKLLIYDASSLKSGVPSRFSGSGSGTDFTLTISSLQPEDFATYYCQQFNSYPLTFGQGTRLEIKR |  |  |  |  |  |  |  |  | EC50 (ug/mL) of induced NK cell cytotoxicity, median (n = 7) [8]: 1.07 µg/mL |
